# According to the supplement of paper PMC12042874:
# ± gives the uncertainty stated by the source.
# Assay: amyloid nucleation score (Sup35N fusion, yeast selection) (log enrichment); library NNK1; higher = more nucleation; inactive = no reads after selection
# How it was run: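 Yeast lacking psi expressed peptides of 20 random codons fused to Sup35N, received 100 μM copper sulfate for 24 hours, and were then grown for 7 days at 30°C on medium lacking adenine and uracil. Illumina sequencing of input and output plasmid inserts provided the reads. Nucleation scores are DiMSum log enrichments of output over input, centred on the mode of non-aggregating sequences. Any sequence with under 100 input reads was excluded.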
row,Substance,amyloid nucleation score
1,VCMTTLCWISSGVGFLHWSS,3.98 ± 0.068
2,MGGTLRNRRGTKVRSELGGD,-0.817 ± 1.7
3,VAWPRGPVKARGIYISGRIC,inactive
4,MRVTFHYFS,-0.434 ± 1.7
5,CLMLAGRFIC,-0.422 ± 0.56
6,LTCRYLACCSLRSGRQMLVG,-0.694 ± 1.2
7,IRYCFCKIK,0.312 ± 1.1
8,STNACRPVMAQGDHGLSVLR,0.283 ± 0.6
9,EFLRNGLIILIVSLSAGELS,0.137 ± 0.23
10,TTSWDYFGAKEIIRFVMVTC,-2.12 ± 2.7
11,ISGYQS,0.088 ± 0.64
12,DLCFCTR,-1.37 ± 2.7
13,WWLFHVFLLKRQSITNAGVR,inactive
14,LPSSGA,-0.019 ± 0.64
15,HLRFYAYRGMGRPNFFLCFE,0.183 ± 0.38
16,GGLKMTP,0.393 ± 0.25
17,VTILWTKSYMESDISFYIMW,-1.03 ± 0.44
18,RNIATYYFRSN,0.612 ± 0.48
19,YQVPKKVAATIGTAWARKRA,0.279 ± 0.29
20,GRNWLVGCVAQWHWSSLSWS,-1.11 ± 2.7
21,KNYLLSLGVCNFQSYPHKCW,4.22 ± 0.16
22,SCLAIRTSYCNEELSIESMQ,-0.8 ± 0.55
23,SLHILISH,0.537 ± 0.39
24,LKRVGSNLNT,-0.229 ± 1.4
25,GWSLNQVVCCALCSVSRRKR,0.553 ± 0.48

row,Substance,amyloid nucleation score
1,SVPKLKAEVE,-0.273 ± 0.2
2,YCVTSMVRRLVKMLYDCRGV,inactive
3,ELLQD,0.038 ± 0.59
4,NFIFVR,0.706 ± 0.53
5,RKNTDVTENEYRWAIF,-0.522 ± 1.9
6,RINMGNYSLKWNMFTKVSLK,-0.227 ± 0.35
7,EAPGTKFCC,2.94 ± 0.1
8,IIGRLNLKMISGLI,2.15 ± 0.58
9,ISKNLNRMHILVLYMVGMRF,0.259 ± 0.88
10,VSPSIRMGNQGSSFSVLNAL,0.149 ± 0.55
11,RQDQLFPICEDSTT,0.612 ± 0.97
12,ISLRYFPNYISFHKLGFRSA,0.523 ± 0.39
13,YCFSSSYVWHNRDGSINMFK,inactive
14,GSGNVRL,-1.61 ± 2.4
15,CIRREFSHDESDVNRSTWFI,0.391 ± 0.71
16,DWGRLVYRFNCKDRNRDGAR,0.177 ± 0.41
17,YVSIYGQWVSSSCWTRRAYN,0.415 ± 0.32
18,ANWCF,-0.213 ± 0.5
19,FYCPRIKNVFSEICIC,3.79 ± 0.1
20,SAYSILSTMFIYFVKSQGTD,3.38 ± 0.058
21,DSPNVVQLLKYTLRYEARLG,0.877 ± 0.16
22,FFHNTSHASYIK,1.09 ± 0.13
23,SLVLSSFPLLIDNSSIESLV,-0.82 ± 0.42
24,SSLMPIYRLFLWFVKVYVKP,9.39 ± 0.049
25,YKSVRSVVWWCLRNSLHFVW,1.91 ± 0.6

row,Substance,amyloid nucleation score
1,SFMVFYNLVCLHMMSNFVAL,0.377 ± 0.68
2,IKLGVFRIKSSFN,0.708 ± 0.34
3,CNFMVSYRISFMLRLIQYYV,-0.938 ± 0.31
4,TLSKYQS,0.221 ± 0.53
5,RVIAYKANPVNTFSYPVWAE,-0.133 ± 0.44
6,FDVMKFYIYLGYSVVPVM,-1.09 ± 0.43
7,MCDIFAMLLIYQFDGKGTV,0.151 ± 0.17
8,SGIEAFNRIIGVCCVLEAGR,3.58 ± 0.19
9,GLRSESRKRGGGGGVAREVG,-0.053 ± 0.86
10,MCDDHWFPAIYKRLVSSNKQ,1.87 ± 0.57
11,YLRFTV,2.57 ± 0.27
12,EYLSDDGI,0.131 ± 0.28
13,WFMPTSRSKVVYLPSYRCNE,0.432 ± 0.2
14,VFCVSRTINGYN,-0.374 ± 0.48
15,EFQMLEFYRANLPSKSQNTL,-0.777 ± 0.43
16,IDVRI,-0.152 ± 0.43
17,WNNGVLLNRV,0.792 ± 0.41
18,IKSGPPGRRQLFN,-0.741 ± 0.81
19,RDNKVPVR,-0.537 ± 1.9
20,MQRLLYACVHYRESAQVSTL,1.93 ± 0.37
21,YIQLVI,-0.279 ± 0.32
22,GMCSEGTFKRQLISMHTCRT,0.247 ± 0.79
23,VYESGRCNLACRMFARDGCS,-1.38 ± 2.4
24,YDIGFVI,-0.067 ± 0.28
25,TYCKASGVR,0.371 ± 0.75

row,Substance,amyloid nucleation score
1,NSGGVWSHYFVVVMRYL,0.083 ± 0.46
2,RSADTLVEKNLIYGRWVRKS,0.93 ± 1
3,YLQEWRIGRVGCVGFTCRCR,0.279 ± 0.45
4,GNFCFPMAYTGLVFGEMLSF,0.1 ± 0.24
5,ACWFMCFYRFPAAWY,0.079 ± 0.3
6,LYSVISPLSEDTYDCLSVPY,0.297 ± 0.79
7,VINRSQIRGHRAFSWVGPSL,0.53 ± 0.38
8,FIHVVAFWRLSRDSY,0.467 ± 0.55
9,IPARTESDTRYMSMCGSNNQ,-0.317 ± 0.55
10,VFLYFIVLNANHCFIMPEHF,3.42 ± 0.089
11,CGGYSTTCSLTWEILASNRL,0.675 ± 1
12,YLFTYRRVTWGSTLQS,1.65 ± 0.48
13,VTYNGYVG,-0.205 ± 0.58
14,LMFSDGWFLNGEISPWVGF,-0.393 ± 0.71
15,FVHPLMYSDS,-0.386 ± 0.43
16,VQSSFSFYDVVNSPGHRWTW,0.14 ± 0.45
17,LVQVIVHFGIYIISAKGQGT,3.1 ± 0.15
18,CDGDASAYDTRGTALSA,inactive
19,RSSRAPWRSSCGGMF,-0.494 ± 0.48
20,LCWRYMVLRMNFFAADLYYN,1.39 ± 0.32
21,TAGLIILINSYASGRLTGDP,6.639 ± 0.049
22,NLTWRGSRDTFECYVDGA,-0.186 ± 0.47
23,KSVVSFMTFPSLQEHKVVLI,0.33 ± 0.53
24,RVLCICFEYINHRAGGSKSF,-0.08 ± 0.95
25,DMLWKRWTIYYAFYFKAWGY,1.08 ± 0.39

row,Substance,amyloid nucleation score
1,MHRGALSTMQHLHEISLLSC,0.886 ± 0.52
2,GHWLYMTYLCL,0.459 ± 0.75
3,RFNYVYFINRNMNEPRRGSL,6.452 ± 0.061
4,VFWGDKMSLLDLSVTNIMSI,1.49 ± 0.4
5,ALVRL,0.085 ± 0.46
6,STDVEGRFTEMLSELMLYVD,inactive
7,LGESREVSGHDNRCWAFQ,0.594 ± 0.49
8,RKLFDCGINACSLRYVTSYR,inactive
9,MEMLGGNRL,1.23 ± 0.36
10,LLLYPRMGDRGTYYGMSGIR,-1.01 ± 2.7
11,ITVGEYVNHCSG,0.224 ± 1.4
12,CIEDVCCS,-0.016 ± 0.23
13,SSNFLRILIGTFVRYRV,0.073 ± 0.37
14,QSISYR,-0.956 ± 0.7
15,NVVSF,-0.466 ± 1.2
16,YPSIGLRVLLNYCDPTDTGA,0.255 ± 1.2
17,FVGFGWYCLDFFHFLNASLG,-0.29 ± 1.4
18,YSLYTNSHVPAWHSPSISHG,-0.38 ± 0.82
19,FGYYFVNGIFLYSSVRYDNM,3.63 ± 0.076
20,CAKLCKASHSVFIDDRRCVR,-1.02 ± 2.4
21,AKMIDR,0.399 ± 0.5
22,FGINVVRGKCRVRSLKDIDS,-0.086 ± 0.48
23,FHFKFSSLLIVSFVLGFCLV,0.027 ± 1.7
24,ALLNVQVRGYVGLGR,1.4 ± 0.52
25,LDRVWMYTIRLLQMKAMVLP,0.497 ± 0.64

row,Substance,amyloid nucleation score
1,SDFRMTGLLTWYRSI,-0.228 ± 0.51
2,IYPILVMSASQA,0.549 ± 0.69
3,RCVKASLYDGEYMKLMDGVM,-0.407 ± 0.45
4,FLLDMV,-0.175 ± 0.45
5,TSQVSGRHVVSIDWTIWLSL,0.616 ± 0.66
6,IKNKGRYVFETPGL,0.13 ± 0.87
7,KLLSGRLDTFSGGGDYMCPV,inactive
8,LTNGAVGVTFAQNVWPFYAN,3.67 ± 0.074
9,GPRYRLLLWECCRHDLSLSC,0.72 ± 0.43
10,YRFQTSISNCYSAERDWGT,1.37 ± 0.42
11,YNFFGCVCDAPPPKCLVYFM,7.596 ± 0.075
12,LVPSWRVFVQHLGLFRAL,0.333 ± 0.7
13,HTQDYEEFIFCLM,inactive
14,LWATNFCNTGFVYSLCIFSR,3.89 ± 0.12
15,NLHVQGVTRNGC,3.84 ± 0.076
16,LWERGKCHEACVVPAKKEGT,0.039 ± 0.51
17,GMYLYIPLSITFTVEHTVVA,5.02 ± 0.093
18,LDARKKARMWRNTIDMDELV,inactive
19,LCQVTG,0.391 ± 0.48
20,SEVQAPHIRCINIRALYLRN,2.08 ± 0.39
21,LYVEYKRAMCVMGVSLWVN,0.224 ± 0.19
22,HNHRRQDGIRNA,1.12 ± 0.14
23,MQKYPIRGRR,1.64 ± 0.23
24,NFIQID,inactive
25,SMRWVDL,1.19 ± 0.97

row,Substance,amyloid nucleation score
1,GTGSSAVDVFSGLMCGTDVL,-0.145 ± 0.46
2,FDIDDIICIM,-1.89 ± 1.4
3,IVWVDLNRIGSCAGLGINYY,0.18 ± 0.41
4,HHLTRTTPYPTSTWLAQLLS,0.994 ± 0.63
5,YIKAGLFGCYMVAGGAYNPV,1.58 ± 0.31
6,YVEFVFNIYSARFEWLLI,-0.463 ± 0.75
7,ALDVWVLMKHSYGLSTVDAL,inactive
8,GVSKCQDEYSGLGNRNYM,-1.28 ± 0.59
9,NQANQSQPCTDSFILRNGVV,inactive
10,EDSLPLDMEVNLGRIVEPKM,1.14 ± 0.59
11,CSFLELLWDVGRCSASQQCM,-0.943 ± 1.7
12,TEYVTLLGLSLGFVLASLGA,0.283 ± 0.43
13,EMTPLLCATVRKPWKRVMIN,-0.311 ± 0.73
14,LLLIRSYKCNGRRIRICSLL,-0.862 ± 0.76
15,DYRGTPNSWMIFMTPRGSLI,-0.004 ± 1.1
16,CALVYGWTEHDV,1.44 ± 0.64
17,WLWIRFIAVTSSSVEIRANS,-0.834 ± 0.54
18,THGVSWQLVRDAILNGGPKR,-1.12 ± 1.3
19,DSCEW,-0.062 ± 0.58
20,FLYRSYVNIGLGGANISNLV,4.3 ± 0.12
21,LLWAPILCLTGDNTVGFLSP,3.3 ± 0.066
22,VLLFVRLILWTEGRYNCIMG,-0.801 ± 1.2
23,GCRPMSFKMSVAVGHLMGDT,2.79 ± 0.2
